For assay [1], the target named is zanidatamab precursor (human). Briefly: SPR; zani precursor captured on immobilised goat anti-human Fc (CM5, Biacore T200), HER2 ECD 3.75-60 nM flowed; single-cycle, 1:1 Langmuir fit; apparent; capture/MW 1.267722403 RU/kDa. For orientation: Surface plasmon resonance follows binding to a sensor surface in real time, without labels.
Assay [2] deals with Zanidatamab (human). Briefly: AUC; sedimentation velocity, HER2 ECD and antibody equimolar (1x), 1 mg/mL total protein in DPBS, 20 °C, c(s) model.
Assay [3] deals with zanidatamab (human). Briefly: SPR; zani captured on immobilised goat anti-human Fc (CM5, Biacore T200), HER2 ECD 3.75-60 nM flowed; single-cycle, 1:1 Langmuir fit; apparent; capture/MW 0.793775709 RU/kDa.
Assay [4] has as its target zanidatamab precursor (human). Briefly: SPR; zani precursor captured on immobilised goat anti-human Fc (CM5, Biacore T200), HER2 ECD 3.75-60 nM flowed; single-cycle, 1:1 Langmuir fit; apparent; capture/MW 4.555477221 RU/kDa.
Assay [5] addresses zanidatamab precursor (human). Briefly: SPR; zani precursor captured on immobilised goat anti-human Fc (CM5, Biacore T200), HER2 ECD 3.75-60 nM flowed; single-cycle, 1:1 Langmuir fit; apparent; capture/MW 0.790725842 RU/kDa.
Assay [6] addresses zanidatamab precursor (human). Nature of the assay: SPR; zani precursor captured on immobilised goat anti-human Fc (CM5, Biacore T200), HER2 ECD 3.75-60 nM flowed; single-cycle, 1:1 Langmuir fit; apparent; capture/MW 2.899594865 RU/kDa.
For assay [7], the target named is zanidatamab (human). Briefly: SPR; zani captured on immobilised goat anti-human Fc (CM5, Biacore T200), HER2 ECD 3.75-60 nM flowed; single-cycle, 1:1 Langmuir fit; apparent; capture/MW 0.484595665 RU/kDa.
Assay [8] addresses zanidatamab precursor (human). Nature of the assay: SPR; zani precursor captured on immobilised goat anti-human Fc (CM5, Biacore T200), HER2 ECD 3.75-60 nM flowed; single-cycle, 1:1 Langmuir fit; apparent; capture/MW 4.096087916 RU/kDa.
In assay [9] the target is zanidatamab precursor (human). Briefly: SPR; zani precursor captured on immobilised goat anti-human Fc (CM5, Biacore T200), HER2 ECD 3.75-60 nM flowed; single-cycle, 1:1 Langmuir fit; apparent; capture/MW 0.312928952 RU/kDa.
Assay [10] concerns the target zanidatamab (human). Nature of the assay: SPR; zani captured on immobilised goat anti-human Fc (CM5, Biacore T200), HER2 ECD 3.75-60 nM flowed; single-cycle, 1:1 Langmuir fit; apparent; capture/MW 0.62396698 RU/kDa.
The target of assay [11] is zanidatamab precursor (human). Nature of the assay: SPR; zani precursor captured on immobilised goat anti-human Fc (CM5, Biacore T200), HER2 ECD 3.75-60 nM flowed; single-cycle, 1:1 Langmuir fit; apparent; capture/MW 0.703489894 RU/kDa.
Assay [12] concerns the target zanidatamab precursor (human). Nature of the assay: SPR; zani precursor captured on immobilised goat anti-human Fc (CM5, Biacore T200), HER2 ECD 3.75-60 nM flowed; single-cycle, 1:1 Langmuir fit; apparent; capture/MW 0.164867939 RU/kDa.
For assay [13], the target named is Zanidatamab (human). Nature of the assay: SPR; Biacore T200; goat anti-human Fc polyclonal Ab amine-coupled to about 2000 RU on a CM5 chip captures the antibody; increasing concentrations of HER2 ECD injected; single-cycle kinetics, 1:1 binding model; KD of zanidatamab called apparent.
Assay [14] addresses zanidatamab precursor (human). Nature of the assay: SPR; zani precursor captured on immobilised goat anti-human Fc (CM5, Biacore T200), HER2 ECD 3.75-60 nM flowed; single-cycle, 1:1 Langmuir fit; apparent; capture/MW 3.817573146 RU/kDa.
Assay [15] deals with zanidatamab precursor (human). Briefly: SPR; zani precursor captured on immobilised goat anti-human Fc (CM5, Biacore T200), HER2 ECD 3.75-60 nM flowed; single-cycle, 1:1 Langmuir fit; apparent; capture/MW 1.154875901 RU/kDa.
Assay [16] deals with zanidatamab precursor (human). Briefly: SPR; zani precursor captured on immobilised goat anti-human Fc (CM5, Biacore T200), HER2 ECD 3.75-60 nM flowed; single-cycle, 1:1 Langmuir fit; apparent; capture/MW 2.483423369 RU/kDa.
The target in assay [17] is zanidatamab (human). Briefly: SPR; zani captured on immobilised goat anti-human Fc (CM5, Biacore T200), HER2 ECD 3.75-60 nM flowed; single-cycle, 1:1 Langmuir fit; apparent; capture/MW 2.37652122 RU/kDa.
Assay [18] has as its target zanidatamab precursor (human). Briefly: SPR; zani precursor captured on immobilised goat anti-human Fc (CM5, Biacore T200), HER2 ECD 3.75-60 nM flowed; single-cycle, 1:1 Langmuir fit; apparent; capture/MW 0.365750719 RU/kDa.
Assay [19] deals with zanidatamab (human). Nature of the assay: SPR; zani captured on immobilised goat anti-human Fc (CM5, Biacore T200), HER2 ECD 3.75-60 nM flowed; single-cycle, 1:1 Langmuir fit; apparent; capture/MW 1.217496547 RU/kDa.
Assay [20] has as its target zanidatamab precursor (human). Briefly: SPR; zani precursor captured on immobilised goat anti-human Fc (CM5, Biacore T200), HER2 ECD 3.75-60 nM flowed; single-cycle, 1:1 Langmuir fit; apparent; capture/MW 2.11927331 RU/kDa.
The target of assay [21] is zanidatamab (human). Nature of the assay: SPR; zani captured on immobilised goat anti-human Fc (CM5, Biacore T200), HER2 ECD 3.75-60 nM flowed; single-cycle, 1:1 Langmuir fit; apparent; capture/MW 0.273135738 RU/kDa.
Assay [22] has as its target zanidatamab precursor (human). Briefly: SPR; zani precursor captured on immobilised goat anti-human Fc (CM5, Biacore T200), HER2 ECD 3.75-60 nM flowed; single-cycle, 1:1 Langmuir fit; apparent; capture/MW 0.423374464 RU/kDa.
In assay [23] the target is zanidatamab precursor (human). Briefly: SPR; zani precursor captured on immobilised goat anti-human Fc (CM5, Biacore T200), HER2 ECD 3.75-60 nM flowed; single-cycle, 1:1 Langmuir fit; apparent; capture/MW 0.083234299 RU/kDa.
For assay [24], the target named is zanidatamab (human). Briefly: SPR; zani captured on immobilised goat anti-human Fc (CM5, Biacore T200), HER2 ECD 3.75-60 nM flowed; single-cycle, 1:1 Langmuir fit; apparent; capture/MW 1.306405834 RU/kDa.
In assay [25] the target is zanidatamab precursor (human). Nature of the assay: SPR; zani precursor captured on immobilised goat anti-human Fc (CM5, Biacore T200), HER2 ECD 3.75-60 nM flowed; single-cycle, 1:1 Langmuir fit; apparent; capture/MW 1.008415548 RU/kDa.
The target of assay [26] is zanidatamab precursor (human). Briefly: SPR; zani precursor captured on immobilised goat anti-human Fc (CM5, Biacore T200), HER2 ECD 3.75-60 nM flowed; single-cycle, 1:1 Langmuir fit; apparent; capture/MW 0.356947091 RU/kDa.
The target in assay [27] is zanidatamab (human). Briefly: SPR; zani captured on immobilised goat anti-human Fc (CM5, Biacore T200), HER2 ECD 3.75-60 nM flowed; single-cycle, 1:1 Langmuir fit; apparent; capture/MW 2.080156929 RU/kDa.
The target in assay [28] is zanidatamab precursor (human). Nature of the assay: SPR; zani precursor captured on immobilised goat anti-human Fc (CM5, Biacore T200), HER2 ECD 3.75-60 nM flowed; single-cycle, 1:1 Langmuir fit; apparent; capture/MW 0.571435477 RU/kDa.
Assay [29] addresses zanidatamab precursor (human). Briefly: SPR; zani precursor captured on immobilised goat anti-human Fc (CM5, Biacore T200), HER2 ECD 3.75-60 nM flowed; single-cycle, 1:1 Langmuir fit; apparent; capture/MW 4.911623982 RU/kDa.
In assay [30] the target is zanidatamab precursor (human). Nature of the assay: SPR; zani precursor captured on immobilised goat anti-human Fc (CM5, Biacore T200), HER2 ECD 3.75-60 nM flowed; single-cycle, 1:1 Langmuir fit; apparent; capture/MW 0.555428881 RU/kDa.
Assay [31] has as its target zanidatamab precursor (human). Nature of the assay: SPR; zani precursor captured on immobilised goat anti-human Fc (CM5, Biacore T200), HER2 ECD 3.75-60 nM flowed; single-cycle, 1:1 Langmuir fit; apparent; capture/MW 2.00002417 RU/kDa.
Assay [32] addresses zanidatamab precursor (human). Nature of the assay: SPR; zani precursor captured on immobilised goat anti-human Fc (CM5, Biacore T200), HER2 ECD 3.75-60 nM flowed; single-cycle, 1:1 Langmuir fit; apparent; capture/MW 3.104479294 RU/kDa.
Assay [33] has as its target zanidatamab (human). Nature of the assay: SPR; zani captured on immobilised goat anti-human Fc (CM5, Biacore T200), HER2 ECD 3.75-60 nM flowed; single-cycle, 1:1 Langmuir fit; apparent; capture/MW 0.856252506 RU/kDa.
The target of assay [34] is zanidatamab precursor (human). Nature of the assay: SPR; zani precursor captured on immobilised goat anti-human Fc (CM5, Biacore T200), HER2 ECD 3.75-60 nM flowed; single-cycle, 1:1 Langmuir fit; apparent; capture/MW 1.970411967 RU/kDa.
Assay [35] has as its target T1, Recombinant human HER2 ECD (Homo sapiens, UniProt P04626).
T1 construct: human epidermal growth factor receptor 2 (HER2), extracellular domain, recombinant; printed mass 72 kDa; The supplier is named for the SPR only; source: bought: Acro Inc
Nature of the assay: SPR; Biacore T200; goat anti-human Fc polyclonal Ab amine-coupled to about 2000 RU on a CM5 chip captures the antibody; increasing concentrations of HER2 ECD injected; single-cycle kinetics, 1:1 binding model; KD of zanidatamab called apparent. The settings on record: both partners purified.

For “Recombinant human HER2 ECD (from UniProt P04626 23-652) (domain or fragment)”, the Kd was determined as 654 pM in assay [1]; 99.7 pM in [3]; 46.8 pM in [4]; 992 pM in [5]; 318 pM in assay [6]; 175 pM in assay [7]. Further, the Kd in assay [8] is 119 pM; in [9] it was 663 pM; in assay [10], 169 pM; in assay [11] it was 992 pM; in assay [12], 879 pM; in assay [13] it was 740 pM. For the same molecule, the Kd came to 136 pM in [14]; 743 pM in assay [15]; 93.1 pM in assay [16]; 80.1 pM in assay [17]; 1120 pM in [18]; 93.2 pM in assay [19]. Besides, the Kd was determined as 475 pM in [20]; 149 pM in [21]; 2020 pM in assay [22]; 890 pM in [23]; 91.3 pM in assay [24]; 490 pM in assay [25]. For the same molecule, the Kd in assay [26] came to 927 pM; in assay [27], 98.9 pM; in assay [28] it was 687 pM; in assay [29] it was 35.8 pM; in assay [30], 679 pM; in assay [31], 152 pM. Also, the Kd worked out at 311 pM in assay [32], 174 pM in assay [33] and 460 pM in [34]. The molecule also showed a percent of the total peak area in multimeric complexes in assay [2] of 95%.

B1: Monovalent one-armed Ab (OAA) with the affinity-improved anti-HER2-ECD2 Fab (antibody, V domains shown)
VH: EVQLVESGGGLVQPGGSLRLSCAASGFTFADYTMDWVRQAPGKGLEWVGDVNPNSGGSIYNQRFKGRFTFSVDRSKNTLYLQMNSLRAEDTAVYYCARNLGPSFYFDYWGQGTLVTVSS
VL: DIQMTQSPSSLSASVGDRVTITCKASQDVSIGVAWYQQKPGKAPKLLIYSASYRYTGVPSRFSGSGSGTDFTLTISSLQPEDFATYYCQQYYIYPATFGQGTKVEIK
notes: as the light chain of m3; also called one variant; copies: + +
On to B1, for which the Kd in [35] worked out at 1700 pM.

The record behind these values is article PMC10011572 (Nature Communications, 2023).
